Reference: publication doi:10.1101/2020.05.08.083964 (bioRxiv, 2020)

Legend:
[1] = target: T1, extracellular domain of the SARS-CoV-2 S protein (S-ECD) (SARS-CoV-2, Wuhan-Hu-1); assay: BLI
[2] = target: S-ECD of SARS-CoV-2 (cryo-EM sample) (SARS-CoV-2, Wuhan-Hu-1); assay: cryo-EM structure
[3] = target: T1, extracellular domain of the SARS-CoV-2 …; assay: cell-based or functional assay

B1: 4A8 (antibody, V domains shown)
VH: EVQLVESGAEVKKPGASVKVSCKVSGYTLTELSMHWVRQAPGKGLEWMGGFDPEDGETMYAQKFQGRVTMTEDTSTDTAYMELSSLRSEDTAVYYCATSTAVAGTPDLFDYYYGMDVWGQGTTVTVSS
VL: EIVMTQSPLSSPVTLGQPASISCRSSQSLVHSDGNTYLSWLQQRPGQPPRLLIYKISNRFSGVPDRFSGSGAGTDFTLKISRVEAEDVGVYYCTQATQFPYTFGQGTKVDIK
[1]
  Kd: < 2.14 nM
[2]
  stoichiometry N: 3
[3]
  neutralization of live (authentic) SARS-CoV-2 in Vero-E6 cells, EC50: 0.607 µg/mL
